# In patent US20220403031A1 (WUXI BIOLOGICS IRELAND, published 2022):
# B1: AP3R2-1A3-z12-hIgG4 (Fc fusion)
# chain: EVQLVESGGGLVQPGGSLRLSCAASGHFSNLAVNWFRQAPGKERELVAGILWSGGSTFYADSVKGRFTISRGNAENMLYLQMNSLRAEDTAVYYCNTGTNWGQGTLVTVSS
# notes: VHH-Fc (hIgG4) fusion of the humanized VHH; also called W3156-AP3R2-1A3-z12-hIgG4; W3156 antibody; not shown: Fc of human IgG4
# Key:
# CD22.his = assay: non-specific binding ELISA; antigen coated at 2 ug/mL, antibody at 10 ug/ml
# Procedure: (§1) Non-specific binding ELISA was performed in 96-well high binding plates (Nunc-Immuno Plate, Thermo Scientific). The plate was coated with various antigens (as listed in the left column of Table 11) at 2 μg/mL overnight at 4° C. After blocking with 2% BSA-PBS, 10 μg/ml antibodies were added to the plate and incubated for 2 hours. […] The HRP signal was detected by adding TMB peroxidase substrate and the reaction was stopped after 12 minutes using 2M HCl. The absorbance at 450 nm was read using a microplate reader (Molecular Device). All incubation steps were performed at room temperature. The plate was washed with PBST (0.05% Tween20-PBS) between steps.
# W317-hPro1.his = target: T1, W317-hPro1.his; assay: as above
# T1 construct: identity unknown
# Procedure: as §1
# Factor VIII = assay: as above
# Procedure: as §1
# FGFR.his = assay: as above
# Procedure: as §1
# CTLA4.his = assay: as above
# Procedure: as §1
# CD147.his = assay: as above
# Procedure: as §1
# VEGF.his = assay: as above
# Procedure: as §1
# CD40 = assay: as above
# Procedure: as §1
# CD3.his = assay: as above
# Procedure: as §1
# human serum Albumin = human serum Albumin (human, UniProt P02768 25-609); assay: as above
# Procedure: as §1
# [1] = target: T2, his-tagged mouse PD-L1 (Sino Biological-50010-M08H), mPro1-ECD-His (mouse, UniProt Q9EP73 19-239); assay: SPR (ProteOn), antibody captured by anti-human IgG Fc, antigen as analyte, 1:1 model
# T2 construct: extracellular domain; His tag; also called mPro1-ECD-His (mouse PD-L1 ECD)
# Procedure: (§2) Antibodies binding affinities to his-tagged human PD-L1 (R&D-9049-B7), his-tagged cynomolgus PD-L1 (Sino Biological-90251-C08H) and his-tagged mouse PD-L1 (Sino Biological-50010-M08H) were detected by surface plasmon resonance (SPR) assay using the software ProteOn. Testing antibody was captured on anti-human IgG Fc antibody immobilized GLM chip (Bio-rad). The chip was rotated 90° and washed with running buffer until the baseline is stable. hPro1.ECD.His, cynoPro1.ECD.His and mPro1-ECD-His at different concentrations was injected over the sensor chip at a flow rate of 100 uL/min for an association phase of 120 s, followed by 240-800 s dissociation. The chip was regenerated by 10 mM glycine (pH 1.5) following every dissociation phase.
# (§3) The sensorgrams for reference channel L1 and buffer channel A6 were subtracted from the test sensorgrams. The experimental data were fitted by 1:1 binding model. Molecular weight of 40 kDa was used to calculate the molar concentration of analyte hPro1.ECD.His (R&D), cynoPro1.ECD.His and mPro1-ECD-His.
# [2] = target: T3, his-tagged human PD-L1 (R&D-9049-B7), hPro1.ECD.His (human, UniProt Q9NZQ7 19-238); assay: as above
# T3 construct: extracellular domain; His tag; also called hPro1.ECD.His (human PD-L1 ECD); human PD-L1 ECD protein (R&D-9049-B7)
# Procedure: as §2, §3
# [3] = target: T4, his-tagged cynomolgus PD-L1 (Sino Biological-90251-C08H), cynoPro1.ECD.His (cynomolgus, UniProt G7PSE7 19-238); assay: as above
# T4 construct: extracellular domain; His tag; also called cynoPro1.ECD.His (cyno PD-L1 ECD)
# Procedure: as §2, §3
# T3 sequence (Q9NZQ7 19-238): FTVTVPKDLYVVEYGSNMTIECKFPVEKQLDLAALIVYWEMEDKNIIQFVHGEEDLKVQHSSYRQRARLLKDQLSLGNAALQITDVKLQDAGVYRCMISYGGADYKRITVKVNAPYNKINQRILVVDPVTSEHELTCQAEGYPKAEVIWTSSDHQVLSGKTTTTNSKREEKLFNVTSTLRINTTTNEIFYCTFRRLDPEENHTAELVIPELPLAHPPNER
# T2 sequence (Q9EP73 19-239, stated change not applied): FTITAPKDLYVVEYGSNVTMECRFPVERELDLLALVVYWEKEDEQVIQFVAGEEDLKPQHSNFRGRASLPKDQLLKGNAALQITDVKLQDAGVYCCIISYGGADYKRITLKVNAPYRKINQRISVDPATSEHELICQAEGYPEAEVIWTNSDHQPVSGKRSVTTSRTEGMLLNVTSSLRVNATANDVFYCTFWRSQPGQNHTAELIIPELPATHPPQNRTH
# T4 sequence (G7PSE7 entry or part of it C08H C08H): as the sequence (Q9NZQ7 19-238) above, with A33T, A34S, S62N, R68Q, Q82R, F173L, T185A, T192I, H215L counted along it
# Sequence of CD40 (P25942 21-193): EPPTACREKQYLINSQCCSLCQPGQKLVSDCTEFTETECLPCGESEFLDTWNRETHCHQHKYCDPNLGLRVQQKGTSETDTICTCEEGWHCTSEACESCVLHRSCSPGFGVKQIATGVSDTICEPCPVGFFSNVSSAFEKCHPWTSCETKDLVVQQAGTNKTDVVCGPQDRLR
# Sequence of VEGF.his (P15692 whole entry): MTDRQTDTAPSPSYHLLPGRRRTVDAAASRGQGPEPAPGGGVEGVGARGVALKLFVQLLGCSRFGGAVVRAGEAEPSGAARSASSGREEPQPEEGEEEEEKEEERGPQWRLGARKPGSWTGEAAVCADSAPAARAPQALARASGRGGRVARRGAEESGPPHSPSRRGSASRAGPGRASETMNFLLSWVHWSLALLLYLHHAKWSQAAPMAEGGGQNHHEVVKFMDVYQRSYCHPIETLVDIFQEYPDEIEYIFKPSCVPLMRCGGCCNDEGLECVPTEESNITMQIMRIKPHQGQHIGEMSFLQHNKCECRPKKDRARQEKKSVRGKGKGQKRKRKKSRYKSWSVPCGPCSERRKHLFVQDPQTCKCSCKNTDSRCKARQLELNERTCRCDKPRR
# Sequence of CTLA4.his (P16410 36-161): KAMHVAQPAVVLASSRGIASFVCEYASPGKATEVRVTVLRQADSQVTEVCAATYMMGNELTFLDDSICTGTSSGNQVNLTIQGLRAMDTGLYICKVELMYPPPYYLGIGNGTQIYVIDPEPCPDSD
binder,measurement,setting,value
B1,Absorbance at 450 nm,CD22.his,0.06
same,Absorbance at 450 nm,W317-hPro1.his,0.06
same,Absorbance at 450 nm,Factor VIII,0.06
same,Absorbance at 450 nm,FGFR.his,0.14
same,Absorbance at 450 nm,CTLA4.his,0.08
same,Absorbance at 450 nm,CD147.his,0.07
same,Absorbance at 450 nm,VEGF.his,0.09
same,Absorbance at 450 nm,CD40,0.25
same,Absorbance at 450 nm,CD3.his,0.07
same,Absorbance at 450 nm,human serum Albumin,0.42
same,Kd,[1],19.4 nM
same,koff,[1],0.0114 s⁻¹
same,kon,[1],589000 M⁻¹ s⁻¹
same,Kd,[2],0.208 nM
same,koff,[2],0.000385 s⁻¹
same,kon,[2],1.85e+06 M⁻¹ s⁻¹
same,Kd,[3],0.251 nM
same,koff,[3],0.000478 s⁻¹
same,kon,[3],1.91e+06 M⁻¹ s⁻¹
